Data reported in publication PMC8211829 (Biochimica et biophysica acta. Biomembranes, 2021).

B1: apoE(201–299) single Cys variant S223C (domain or fragment)
chain: QPLQERAQAWGERLRARMEEMGCRTRDRLDEVKEQVAEVRAKLEEQAQQIRLQAEAFQARLKSWFEPLVEDMQRQWAGLVEKVQAAVGTSAAPVPSDNH
B2: apoE(201–299) single Cys variant at E255 (domain or fragment)
chain: QPLQERAQAWGERLRARMEEMGSRTRDRLDEVKEQVAEVRAKLEEQAQQIRLQACAFQARLKSWFEPLVEDMQRQWAGLVEKVQAAVGTSAAPVPSDNH

Target: the molecule itself
Assay: cross-linking

Row | Protein | binding result
1 | B1 | binds
2 | B2 | binds
